Assay [1] concerns the target CgluDopGS, Dop-loop variant of Dop from Corynebacterium glutamicum (Dop-loop H43-I77 replaced with (GS)4) (Corynebacterium glutamicum). Kind of assay: ITC. In general terms: In ITC the heat of successive injections is recorded.
Assay [2] concerns the target T1, Depupylase Dop from Corynebacterium glutamicum, wild type (Corynebacterium glutamicum).
T1 chain: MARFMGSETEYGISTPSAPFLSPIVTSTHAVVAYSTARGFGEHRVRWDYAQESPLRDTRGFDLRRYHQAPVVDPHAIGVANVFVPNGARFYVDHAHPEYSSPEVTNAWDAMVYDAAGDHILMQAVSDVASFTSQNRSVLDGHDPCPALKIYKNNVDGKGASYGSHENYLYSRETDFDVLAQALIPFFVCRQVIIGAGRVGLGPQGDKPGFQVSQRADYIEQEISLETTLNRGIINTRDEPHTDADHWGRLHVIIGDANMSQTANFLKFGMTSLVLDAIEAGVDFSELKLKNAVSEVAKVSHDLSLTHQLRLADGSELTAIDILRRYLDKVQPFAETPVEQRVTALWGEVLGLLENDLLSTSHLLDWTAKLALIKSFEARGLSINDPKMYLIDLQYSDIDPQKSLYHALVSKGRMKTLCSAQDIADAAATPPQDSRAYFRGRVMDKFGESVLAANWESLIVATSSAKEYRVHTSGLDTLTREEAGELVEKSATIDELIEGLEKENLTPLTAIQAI
Kind of assay: ITC.

Our source for the Kd values is publication PMC8599861 (2021).

As usually defined, the Kd is the free concentration of one partner at which half of the binding sites on the other are occupied at equilibrium, for simple one-to-one binding. A lower Kd goes with higher affinity.

B1: Prokaryotic ubiquitin-like protein Pup from Corynebacterium glutamicum with C-terminal glutamate (natural protein)
chain: MNAKQTQIMGGGGRDEDNAEDSAQASGQVQINTEGVDSLLDEIDGLLENNAEEFVRSYVQKGGE
B1: the Kd was 76 nM in assay [1] and 186 nM in assay [2].
